From patent US20230212319A1, “NOVEL ANTIGEN BINDING DOMAINS AND SYNTHETIC ANTIGEN RECEPTORS INCORPORATING THE SAME” (University of Southern California, priority 2020, published 2023)

How the values were obtained:
[1] = tested on: Daudi cells expressing luciferase; assay: Daudi-luciferase i.p. model in NSG mice, CD16 SAR-T plus rituximab; assay type: in vivo; settings: rituximab plus 1 × 10^7 SAR-T cells, IL-2, NSG mice
Protocol: Use of universal SAR-T cells expressing CD16 as the antigen binding domain. Daudi cells expressing luciferase are injected intraperitoneally (i.p.; 0.3 × 10^6 cells/mouse) in NSG mice (Jackson Laboratory). Some mice receive rituximab ([…]) i.p. Human T cells (1 × 10^7) expressing CD8SP-hu-mROO5-1-vL-[hTCRb-S57C]-F-P2A-IgSP-Apa-CD16-V158-v2-G4Sx3v2-hu-mROO5-1-vH-[hTCRa-T48C] (SEQ ID NO: 4725) SAR are injected four days after Daudi inoculation. Control mice receive tissue culture medium instead of rituximab or T cells. Rituximab injection is repeated weekly for 4 weeks, with no further T lymphocyte injection. All mice receive intraperitoneal injections of 1,000-2,000 IU of IL-2 twice a week for 4 weeks.

[2] = tested on: RAJI-CD19-KO cells; assay: JNG assay, co-culture with RAJI-CD19-KO cells; assay type: cell-based; settings: co-culture with Raji-CD19-KO
How it was run: (§1)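 Jurkat NFAT-GFP (JNG) cells stably transduced with SARs by lentivirus, with drug selection where the construct carried a resistance gene, then co-cultured with target cells at E:T ~1:2 for ~4–18 h. % GFP-positive cells measured by FACS against parental JNG; +/- to 5+ correspond to ~5–50% GFP-positive.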

[3] = tested on: U-87 MG; assay: JNG NFAT-GFP assay, co-culture with U-87 MG cells; assay type: cell-based
[4] = tested on: RS;411; assay: JNG assay, co-culture with RS;411 cells; assay type: cell-based; settings: co-culture with RS411
How it was run: as §1

[5] = tested on: RAJI cells; assay: JNG assay, co-culture with RAJI cells; assay type: cell-based; settings: JNG cells expressing construct, co-culture with Raji
How it was run: as §1

[6] = tested on: L363-CD38-KO; assay: JNG NFAT-GFP assay, co-culture with L363-CD38-KO cells; assay type: cell-based
[7] = tested on: L363 cells; assay: JNG assay, co-culture with L363 cells; assay type: cell-based; settings: co-culture with L363
How it was run: as §1

Row | Molecule | tumor growth, Daudi-luciferase i.p. [1] | NFAT-GFP ASSAY: Raji-CD19-KO [2] | NFAT-GFP ASSAY: U-87 MG [3] | NFAT-GFP ASSAY: RS411 [4] | NFAT-GFP ASSAY: Raji [5] | NFAT-GFP ASSAY: L363-CD38-KO [6] | NFAT-GFP ASSAY: L363 [7]
1 | 4725 (protein, Synthetic Polynucloetide) MALPVTALLLPLALLLHAARPDIQMTQSPSSLSASVGDRVTITCKASDHINNWLAWYQQKPGQAPKLLIYGATTLETGVPSRFSGSGSGTDYTLTISSLQPEDFATYYCQQSWNTPWTFGQGTKLEIKRLEDLKNVFPPEVAVFEPSEAEISHTQKATLVCLATGFYPDHVELSWWVNGKEVHSGVCTDPQPLKEQPALNDSRYCLSSRLRVSATFWQNPRNHFRCQVQFYGLSENDEWTQDRAKPVTQIVSAEAWGRADCGFTSESYQQGVLSATILYEILLGKATLYAVLVSALVLMAMVKRKDSRGRAKRSGSGATNFSLLKQAGDVEENPGPTSMDWIWRILFLVGAATGAHSGPQVQLQESGGGLAQAGGSLRLSCAASGRTFSMGWFRQAPGKEREFVAAITYSGGSPYYASSVRGRFTISRDNAKNTVYLQMNSLKPEDTAVYYCAANPTYGSDWNAENWGQGTQVTVSSGSGGGGSGGGGSGGGGSFEQVQLQQPGAELVKPGASVKMSCKASGYAFSSYWINWMKQKPGQGLEWIGQIYPGDGDTNYNGKFKGRATLTADTSSSTAYMQLSSLTSEDSAVYFCARSITTVVGCAMDYWGQGTSVTVSSTRIQNPDPAVYQLRDSKSSDKSVCLFTDFDSQTNVSQSKDSDVYITDKCVLDMRSMDFKSNSAVAWSNKSDFACANAFNNSIIPEDTFFPSPESSCDVKLVEKSFETDTNLNFQNLSVIGFRILLLKVAGFNLLMTLRLWSSRAKRSGSGVKQTLNFDLLKLAGDVESNPGPSRGHMTEYKPTVRLATRDDVPRAVRTLAAAFADYPATRHTVDPDRHIERVTELQELFLTRVGLDIGKVWVADDGAAVAVWTTPESVEAGAVFAEIGPRMAELSGSRLAAQQQMEGLLAPHRPKEPAWFLATVGVSPDHQGKGLGSAVVLPGVEAAERAGVPAFLETSAPRNLPFYERLGFTVTADVEVPEGPRTWCMTRKPGA | reduced tumor growth | – | – | – | – | – | –
2 | 22169 (protein) MALPVTALLLPLALLLHAARPEVQLVESGGGLVQPGGSLRLSCAASGFASDYYIIGWFRQAPGKEREGVSCISSRYANTNYADSVKGRFTISRDNAKNTVYLQMNSLKPEDTAVYYCAADTRRYTCPDIATMHRNFDSWGQGTLVTVSSGTGGGGSGGGGSGGGGSEFDIQMTQSPSSLSASVGDRVTITCKASDHINNWLAWYQQKPGQAPKLLIYGATTLETGVPSRFSGSGSGTDYTLTISSLQPEDFATYYCQQSWNTPWTFGQGTKLEIKRLEIQNPDPAVYQLRDSKSSDKSVCLFTDFDSQTNVSQSKDSDVYITDKCVLDMRSMDFKSNSAVAWSNKSDFACANAFNNSIIPEDTFFPSSDVPCDVKLVEKSFETDTNLNFQNLSVIGFRILLLKVAGFNLLMTLRLWSSRAKRSGSGVKQTLNFDLLKLAGDVESNPGPTSATMDWIWRILFLVGAATGAHSGPQVQLQESGGGLAQAGGSLRLSCAASGRTFSMGWFRQAPGKEREFVAAITYSGGSPYYASSVRGRFTISRDNAKNTVYLQMNSLKPEDTAVYYCAANPTYGSDWNAENWGQGTQVTVSSGSGGGGSGGGGSGGGGSFEQVQLQQPGAELVKPGASVKMSCKASGYAFSSYWINWMKQKPGQGLEWIGQIYPGDGDTNYNGKFKGRATLTADTSSSTAYMQLSSLTSEDSAVYFCARSITTVVGCAMDYWGQGTSVTVSSTREDLKNVFPPEVAVFEPSKAEIAHTQKATLVCLATGFYPDHVELSWWVNGKEVHSGVCTDPQPLKEQPALNDSRYCLSSRLRVSATFWQNPRNHFRCQVQFYGLSENDEWTQDRAKPVTQIVSAEAWGRADCGITSASYHQGVLSATILYEILLGKATLYAVLVSALVLMAMVKRKDSRGRAKRSGSGATNFSLLKQAGDVEENPGPSRGHMTEYKPTVRLATRDDVPRAVRTLAAAFADYPATRHTVDPDRHIERVTELQELFLTRVGLDIGKVWVADDGAAVAVWTTPESVEAGAVFAEIGPRMAELSGSRLAAQQQMEGLLAPHRPKEPAWFLATVGVSPDHQGKGLGSAVVLPGVEAAERAGVPAFLETSAPRNLPFYERLGFTVTADVEVPEGPRTWCMTRKPGA | – | 4+ (refer to approximately 5%, 10%, 20%, 30%, 40% and 50% GFP positive cells) | 3+ (refer to approximately 5%, 10%, 20%, 30%, 40% and 50% GFP positive cells) | 2+ (refer to approximately 5%, 10%, 20%, 30%, 40% and 50% GFP positive cells) | 3+ (refer to approximately 5%, 10%, 20%, 30%, 40% and 50% GFP positive cells) | – | –
3 | 22128 (protein) MALPVTALLLPLALLLHAARPQVQLVESGGGLVQPGGSLRLSCAASGFTFTNHAMSWVRQAPGKGLELVSSISGNGRTTYYADSVKGRFTISRDISKNTLDLQMNSLRAEDTAVYYCAKDGGETLVDSRGQGTLVTVSSLEGGGGSGGGGSIEGGGGSGGGGSKVQLLESGGGLVQPGGSLRLSCAASGFIFSSYAMSWVRQAPGKGQEWVSGVSGTGVNTYYADSVKGRFTISRDNSKNTLYLQMNSLRAEDTAVYYCASGKGWDSGSWYEDYRGQGTLVTVSSGTGGGGSGGGGSGGGGSEFDIQMTQSPSSLSASVGDRVTITCKASDHINNWLAWYQQKPGQAPKLLIYGATTLETGVPSRFSGSGSGTDYTLTISSLQPEDFATYYCQQSWNTPWTFGQGTKLEIKRLEDLKNVFPPEVAVFEPSEAEISHTQKATLVCLATGFYPDHVELSWWVNGKEVHSGVCTDPQPLKEQPALNDSRYCLSSRLRVSATFWQNPRNHFRCQVQFYGLSENDEWTQDRAKPVTQIVSAEAWGRADCGFTSESYQQGVLSATILYEILLGKATLYAVLVSALVLMAMVKRKDSRGRAKRSGSGATNFSLLKQAGDVEENPGPTSMDWIWRILFLVGAATGAHSFEQVQLQQPGAELVKPGASVKMSCKASGYAFSSYWINWMKQKPGQGLEWIGQIYPGDGDTNYNGKFKGRATLTADTSSSTAYMQLSSLTSEDSAVYFCARSITTVVGCAMDYWGQGTSVTVSSTRIQNPDPAVYQLRDSKSSDKSVCLFTDFDSQTNVSQSKDSDVYITDKCVLDMRSMDFKSNSAVAWSNKSDFACANAFNNSIIPEDTFFPSPESSCDVKLVEKSFETDTNLNFQNLSVIGFRILLLKVAGFNLLMTLRLWSSRAKRSGSGVKQTLNFDLLKLAGDVESNPGPSRAHMTEYKPTVRLATRDDVPRAVRTLAAAFADYPATRHTVDPDRHIERVTELQELFLTRVGLDIGKVWVADDGAAVAVWTTPESVEAGAVFAEIGPRMAELSGSRLAAQQQMEGLLAPHRPKEPAWFLATVGVSPDHQGKGLGSAVVLPGVEAAERAGVPAFLETSAPRNLPFYERLGFTVTADVEVPEGPRTWCMTRKPGA | – | 2+ (refer to approximately 5%, 10%, 20%, 30%, 40% and 50% GFP positive cells) | – | 2+ (refer to approximately 5%, 10%, 20%, 30%, 40% and 50% GFP positive cells) | 3+ (refer to approximately 5%, 10%, 20%, 30%, 40% and 50% GFP positive cells) | 2+ (refer to approximately 5%, 10%, 20%, 30%, 40% and 50% GFP positive cells) | 2+ (refer to approximately 5%, 10%, 20%, 30%, 40% and 50% GFP positive cells)
